Laboratory results as given in US20220204565A1 (DREXEL UNIVERSITY, published 2022).
Like-named read-outs stand apart in the source and are kept apart here. Bridges are numbered along the chain shown (N, C = ends). Where no end group is shown, it is not given here. [ ]: non-standard residue; d: D form. triazolo‑Pro(2,4-diMe-benzyl) = triazolo-proline with ortho- and para-methyl phenyl methyl on the triazole; triazolo‑Pro(3,4-diMe-benzyl) = triazolo-proline with para- and meta-methyl phenyl methyl on the triazole; triazolo‑Pro(3,5-diMe-benzyl) = triazolo-proline with two meta-methyl phenyl methyl on the triazole; triazolo‑Pro(2-Me-benzyl) = triazolo-proline with ortho-methyl phenyl methyl on the triazole; triazolo‑Pro(3-Me-benzyl) = triazolo-proline with meta-methyl phenyl methyl on the triazole; triazolo‑Pro(4-Me-benzyl) = triazolo-proline with para-methyl phenyl methyl on the triazole; triazolo‑Pro(4-tBu-phenyl) = triazolo-proline with para-tert-butylphenyl on the triazole; triazolo‑Pro(ferrocenyl) = triazolo-proline carrying a ferrocene moiety on the triazole; triazolo‑Pro(benzyl) = triazolo-proline with phenyl methyl moiety on the triazole; triazolo‑Pro(biphenyl) = triazolo-proline with biphenyl group on the triazole

Tests used:
[1] = target: T1, wild type monomeric full-length HIV-1 YU-2 gp120 (HIV-1 YU-2, UniProt P35961 32-498); experiment: SPR competition: gp120 YU-2 with increasing peptide over immobilised 17b; competitor 17b
T1 construct: domain: gp120; also called gp120YU-2; gp120 YU-2
Protocol: (§1) For kinetic analyses, typically 2000-3000 RUs of protein reagents are immobilized on SPR chips, and analytes are passed over the surface at 50-100 μL/min. Surface regeneration is achieved by a 5 μL injection of 10 mM HCl solution at 100 μL/min.
(§2) Data analysis of SPR competition data was performed using BIAevaluation v4.1.1 software (GE). To correct for nonspecific binding, response signals from buffer injection and from control flow cell were subtracted from all sensorgrams. […] The inhibition curve was plotted and then fitted using the four-parameter equation as shown below using OriginPro 8 graphing software.

[2] = target: HIV-1 BaL.01 Env gp160 on pseudovirus (HIV-1 BaL.01); experiment: cell-based or functional assay
[3] = target: T1, wild type monomeric full-length HIV-1 …; experiment: SPR competition: gp120 YU-2 with increasing peptide over immobilised soluble CD4; competitor CD4
Protocol: as §1, §2

[4] = target: T1, wild type monomeric full-length HIV-1 …; experiment: ITC with monomeric gp120 YU-2
Protocol: (§3) The resulting heat changes were integrated, and the values obtained were fitted to a quadratic binding equation (one site binding model).
(§4) cPT dissociation constants were determined at 25° C. on a VP-Isothermal Titration Calorimeter (VP-ITC) system (MicroCal™, GE Healthcare, Freiburg). […] The resulting heat change upon injection was integrated over a time range of 300 sec, and the obtained values were fitted to a standard single-site binding model using ORIGIN®.

[5] = target: T1, wild type monomeric full-length HIV-1 …; experiment: ITC, peptide titrated into 30 µM full-length gp120 YU-2, 25 °C, PBS pH 7.3
Protocol: as §3, §4

[6] = target: HIV-1 BaL.01 Env gp160 on pseudovirus (HIV-1 BaL.01); experiment: cell-based or functional assay; remark: listed apart in the source
[7] = target: T1, wild type monomeric full-length HIV-1 …; experiment: SPR competition: gp120 YU-2 with increasing peptide over immobilised soluble CD4; competitor CD4; CD4 competition column, not 17b competition
Protocol: as §1, §2

[8] = target: T1, wild type monomeric full-length HIV-1 …; experiment: SPR competition: fixed HIV-1 YU-2 gp120 mixed with rising concentrations of 36 and passed over immobilized soluble CD4; y axis % gp120 binding to CD4 falls from about 97 to about 10 between about 5 and 2500 nM
Protocol: as §1, §2

[9] = target: T1, wild type monomeric full-length HIV-1 …; experiment: SPR competition: gp120 YU-2 with increasing peptide over immobilised 17b; competitor 17b; remark: listed apart in the source
Protocol: as §1, §2

[10] = target: T1, wild type monomeric full-length HIV-1 …; experiment: SPR competition: fixed HIV-1 YU-2 gp120 mixed with rising concentrations of 36 and passed over immobilized 17b; y axis % gp120 binding to 17b falls from about 100 to near 0 between about 2 and 2500 nM
Protocol: as §1, §2

[11] = target: T1, wild type monomeric full-length HIV-1 …; experiment: SPR competition: gp120 YU-2 with increasing peptide over immobilised soluble CD4; competitor CD4; remark: listed apart in the source
Protocol: as §1, §2

| Binder | IC50 [1] [nM] | HIV-1Bal.01 infection inhibition IC50 [2] [nM] | IC50 [3] [nM] | also measured |
| --- | --- | --- | --- | --- |
| DNIPWK-NH2 (lactam 1-6; not fully specified (residue 4); also: further groups not given here) [cPT 20] | 820 | 1200 | 956 |  |
| DNI[triazolo‑Pro(ferrocenyl)]WK-NH2 (lactam 1-6, Ferrocene-containing parent cyclic peptide triazole; also called lead cPT 3) [cPT 3 (AAR029b)] |  |  |  | -TΔS [4]: -2.75 kcal/mol; Kd [5]: 415 nM; ΔH [5]: -5.96 kcal/mol; ΔS [5]: 0.00922 kcal/mol; HIV-1Bal.01 infection inhibition IC50 [6]: ~237 nM |
| DNI[triazolo‑Pro(benzyl)]WK-NH2 (lactam 1-6) [cPT 19] | 269 | 438 | 257 |  |
| DNI[triazolo‑Pro(2,4-diMe-benzyl)]WK-NH2 (lactam 1-6) [cPT 27] | 136 | 302 | 130 |  |
| DNI[triazolo‑Pro(biphenyl)]WK-NH2 (lactam 1-6) [cPT 23] | 720 | 269 | 680 |  |
| DNI[triazolo‑Pro(3,4-diMe-benzyl)]WK-NH2 (lactam 1-6) [cPT 29] | 2600 | 8000 | 2800 |  |
| DNI[triazolo‑Pro(4-tBu-phenyl)]WK-NH2 (lactam 1-6) [cPT 22] | 120 | 350 | 150 |  |
| DNI[triazolo‑Pro(4-iPr-phenyl)]WK-NH2 (lactam 1-6) [cPT 21] | 1260 | 900 | 1200 |  |
| DNI[triazolo‑Pro(2-Me-benzyl)]WK-NH2 (lactam 1-6) [cPT 25] | 128 | 5100 | 132 | HIV-1 cell infection inhibition, fold lower potency against cPT 24 [6]: ~28 fold |
| DNI[triazolo‑Pro(3-Me-benzyl)]WK-NH2 (lactam 1-6) [cPT 26] | 228 | 220 | 234 |  |
| DNI[triazolo‑Pro(4-Me-benzyl)]WK-NH2 (lactam 1-6) [cPT 24] | 74 | 180 | 80 |  |
| DNI[triazolo‑Pro]WK-NH2 (lactam 1-6; not fully specified) [cPT 18] | 647 | 1400 |  | IC50 [7]: 614 nM; HIV-1 cell infection inhibition IC50 [6]: ~1300 nM |
| DNI[4‑(4-(4-(thiophen-2-yl)phenyl)-1H-1,2,3-triazol-1-yl)proline]WK-NH2 (lactam 1-6, also called Compound 29N-2) [cPT 36 (29N-2)] |  |  |  | -TΔS [4]: -4.74 kcal/mol; IC50 [8]: 66 nM; Kd [5]: 350 nM; ΔH [5]: -4.07 kcal/mol; ΔS [5]: 0.0159 kcal/mol; IC50 [9]: ~56 nM; IC50 [10]: 56 nM; HIV-1 infection inhibition IC50 [6]: ~105 nM; IC50 [11]: ~66 nM |
| DNI[triazolo‑Pro(3,5-diMe-benzyl)]WK-NH2 (lactam 1-6) [cPT 28] | 918 | 2000 | 926 |  |
